From article PMC8996997, “YY1 Oligomerization Is Regulated by Its OPB Domain and Competes with Its Regulation of Oncoproteins” (Cancers, 2022)

Target: T1, His×6-YY1(wt) (human, UniProt P25490 1-414)
T1 construct: Yin Yang 1 (YY1), wild type; also called Yin Yang 1; source: bacteria, recombinant, purified
Assay: SPR; Biacore T200; about 12,000 RU of His×6-YY1(wt) immobilised by amine coupling on a CM5 chip; analytes at 62.5, 125, 250, 500 and 1000 nM
Settings: both partners purified

B1: His×6-YY1(260–414) (domain or fragment, human, UniProt P25490 260-414, looked up)
chain: LPPGGIPGIDLSDPKQLAEFARMKPRKIKEDDAPRTIACPHKGCTKMFRDNSAMRKHLHTHGPRVHVCAECGKAFVESSKLKRHQLVHTGEKPFQCTFEGCGKRFSLDFNLRTHVRIHTGDRPYVCPFDGCNKKFAQSTNLKSHILTHAKAKNNQ
notes: source: bacteria, recombinant, purified
  binding result: binds
